The target of experiment [1] is HLA-A*02:01. As to the kind of experiment: IEDB peptide-MHC binding, purified MHC/competitive/fluorescence; ≥ and ≤ were set here for values at or beyond the usual limits of such assays.
For the next experiment, the target named is HLA-A*30:02. As to the kind of experiment: IEDB peptide-MHC binding, purified MHC/competitive/radioactivity; filed as Kd, often an IC50 or EC50 that approximates it; ≥ and ≤ were set here for values at or beyond the usual limits of such assays. As to conditions: source organism: Dengue virus 3 Martinique/1243/1999.
The target in another experiment is HLA-B*51:01. The experiment is described as above.
For a further experiment, the target named is HLA-B*53:01. Described as above.
Experiment [2] concerns the target HLA-A*02:01. Kind of experiment: IEDB peptide-MHC binding, purified MHC/competitive/fluorescence; filed as Kd, often an IC50 or EC50 that approximates it; ≥ and ≤ were set here for values at or beyond the usual limits of such assays.
Another experiment addresses HLA-B*35:01. As to the kind of experiment: IEDB peptide-MHC binding, purified MHC/competitive/radioactivity; filed as Kd, often an IC50 or EC50 that approximates it; ≥ and ≤ were set here for values at or beyond the usual limits of such assays.
Another experiment concerns the target HLA-A*02:02. The description is as above.
For another experiment, the target named is HLA-A*02:03. Described as above.
The target in a further experiment is HLA-A*02:06. Described as above.
In another experiment the target is HLA-A*26:01. Kind of experiment: IEDB peptide-MHC binding, purified MHC/competitive/fluorescence; filed as Kd, often an IC50 or EC50 that approximates it; ≥ and ≤ were set here for values at or beyond the usual limits of such assays. As to conditions: source organism: Influenza A virus (A/Sichuan/2/1987(H3N2)).
Another experiment has as its target HLA-B*15:01. Kind of experiment: IEDB peptide-MHC binding, purified MHC/direct/fluorescence; filed as Kd, often an IC50 or EC50 that approximates it; ≥ and ≤ were set here for values at or beyond the usual limits of such assays. The note with it: source organism: Mammarenavirus juninense.
In another experiment the target is HLA-B*58:01. Described as above. As to conditions: source organism: Mammarenavirus juninense.
The target of the next experiment is HLA-A*03:01. The experiment is described as above. The note with it: source organism: Vibrio cholerae.
Setting [3] is: source organism: Zaire ebolavirus.
The mark [4] stands for this setting: source organism: Dengue virus 1 Singapore/S275/1990.
Where [5] appears, read: source organism: Dengue virus 3 Martinique/1243/1999.
[6] abbreviates: source organism: Dengue virus 2 Jamaica/1409/1983.
The mark [7] stands for this setting: source organism: SARS coronavirus Tor2.
The mark [8] stands for this setting: source organism: Vaccinia virus WR.
Where [9] appears, read: source organism: Mycobacterium tuberculosis.
[10] abbreviates: source organism: Dengue virus 1 Brazil/97-11/1997.

Usually IC50 stands for the concentration that gives 50% inhibition. A high value points to weaker potency in that assay. As for AKAIITPIV, in the experiment with HLA-A*02:01 [1] (source organism: Vaccinia virus Copenhagen), the IC50 is ≥ 147000 nM.

For the sequence ASDTPSATT, the IC50 with HLA-A*02:01 [1] (setting [3]) is ≥ 614000 nM.

The Kd is a measure of binding affinity in units of concentration. On to AWNVWEVEDY, for which, in the experiment with HLA-A*30:02, the Kd was ≥ 69700 nM.

Regarding CPDDQRAWNI, the dissociation constant Kd with HLA-B*51:01 (setting [4]) was 18000 nM; with HLA-B*53:01 (setting [4]), 120 nM.

On to DIKPDNILL, for which the Kd with HLA-A*02:01 [2] (source organism: Trichodesmium erythraeum IMS101) was ≥ 20000 nM.

For EPETPNMDVI, in the experiment with HLA-B*53:01 (setting [5]), the dissociation constant Kd stood at 10800 nM.

On to FMSMVSHEL, for which the Kd in the experiment with HLA-A*02:01 [2] (source organism: Bacillus anthracis str. A0488) amounted to 0.5 nM.

Turning to FPVSIPITA, the Kd in the experiment with HLA-B*35:01 (setting [6]) is 1.7 nM; in the experiment with HLA-B*51:01 (setting [6]) it was 3720 nM.

With FVVFLLVTL, the Kd with HLA-A*02:02 (setting [7]) was 217 nM; with HLA-A*02:03 (setting [7]), 1640 nM; in the experiment with HLA-A*02:06 (setting [7]), 37.7 nM.

On to GLCNYGGIL, for which the values for the Kd in the experiment with HLA-A*02:02 (setting [8]), with HLA-A*02:03 (setting [8]) and with HLA-A*02:06 (setting [8]) were 97.7 nM, 125 nM and 1360 nM, respectively.

Regarding GLRQQLEDI, the Kd with HLA-A*02:02 (setting [8]) was determined as 43 nM; with HLA-A*02:03 (setting [8]), 4.72 nM; in the experiment with HLA-A*02:06 (setting [8]), 4310 nM.

Consider GMQFDKVYL, for which the Kd in the experiment with HLA-A*02:02 (setting [8]) amounted to 13.4 nM; with HLA-A*02:03 (setting [8]), 277 nM; with HLA-A*02:06 (setting [8]) it was 1910 nM.

As to GPLRMVLAFI, the dissociation constant Kd with HLA-B*51:01 (source organism: Dengue virus 4 Philippines/H241/1956) was ≥ 35500 nM.

Take HAKYMVTDKT: the Kd in the experiment with HLA-A*02:02 (setting [8]) was 9030 nM; with HLA-A*02:03 (setting [8]), ≥ 35000 nM; in the experiment with HLA-A*02:06 (setting [8]) it was ≥ 65100 nM.

Regarding HLRASTTENA, the figures for the Kd with HLA-A*02:02 (setting [8]), in the experiment with HLA-A*02:03 (setting [8]) and with HLA-A*02:06 (setting [8]) were 488 nM, 37.9 nM and ≥ 69800 nM, respectively.

On to IAGLKIEEI, for which the Kd in the experiment with HLA-A*02:02 (setting [8]) turned out to be 7660 nM; with HLA-A*02:03 (setting [8]), 6090 nM; with HLA-A*02:06 (setting [8]), 1970 nM.

Consider ILPDKIDGL, for which the values for the Kd with HLA-A*02:02 (setting [8]), with HLA-A*02:03 (setting [8]) and with HLA-A*02:06 (setting [8]) were 1.04 nM, 3.45 nM and 43.1 nM, respectively.

As to ITYGACPRY, the equilibrium dissociation constant (Kd) with HLA-A*26:01 is 34.3 nM.

For the sequence IVPDADPPI, the Kd was determined as 5080 nM with HLA-A*02:02 (setting [8]), 10700 nM with HLA-A*02:03 (setting [8]) and 274 nM with HLA-A*02:06 (setting [8]).

With IVSKCIVQSV, the Kd with HLA-A*02:02 (setting [8]) stood at 123 nM; with HLA-A*02:03 (setting [8]), 30.8 nM; with HLA-A*02:06 (setting [8]), 552 nM.

For the sequence KISVEKIKQT, the dissociation constant (Kd) was 1230 nM with HLA-A*02:02 (setting [8]), 8960 nM in the experiment with HLA-A*02:03 (setting [8]) and ≥ 21000 nM with HLA-A*02:06 (setting [8]).

KLAGGVAVI had an IC50 with HLA-A*02:01 [1] (setting [9]) of 120 nM.

In the experiment with HLA-A*02:01 [2] (source organism: Variola virus), KLGFDEIKGL showed a Kd of 134 nM.

Regarding KLIADSIDF, the Kd in the experiment with HLA-B*15:01 turned out to be 67.5 nM; in the experiment with HLA-B*58:01 it was 1620 nM.

In the experiment with HLA-A*02:01 [1] (setting [9]), KLQERLAKL displayed an IC50 of 100 nM.

As for LAFSIMKSV, the Kd in the experiment with HLA-B*51:01 (setting [5]) came to 155 nM.

For LIFNVKSKLL, the Kd in the experiment with HLA-A*02:02 (setting [8]) was 2390 nM; with HLA-A*02:03 (setting [8]), 6690 nM; in the experiment with HLA-A*02:06 (setting [8]) it was ≥ 28500 nM.

Take LITLILSNKL: the values for the Kd with HLA-A*02:02 (setting [8]), with HLA-A*02:03 (setting [8]) and with HLA-A*02:06 (setting [8]) were 225 nM, 293 nM and 633 nM, respectively.

Consider LLLEWLAEV, for which the Kd was found to be 0.114 nM with HLA-A*02:02 (setting [7]), 0.627 nM in the experiment with HLA-A*02:03 (setting [7]) and 0.105 nM with HLA-A*02:06 (setting [7]).

With LLPLTSLVIT, the equilibrium dissociation constant (Kd) worked out at 999 nM with HLA-A*02:02 (setting [8]), 1320 nM with HLA-A*02:03 (setting [8]) and 1610 nM with HLA-A*02:06 (setting [8]).

Turning to LMIGNYFSGV, the dissociation constant Kd in the experiment with HLA-A*02:02 (setting [8]) amounted to 0.126 nM; with HLA-A*02:03 (setting [8]), 0.0932 nM; with HLA-A*02:06 (setting [8]), 0.132 nM.

Consider LMSFTILCL, for which the Kd with HLA-A*02:02 (setting [7]) amounted to 0.269 nM; with HLA-A*02:03 (setting [7]) it was 16.3 nM; with HLA-A*02:06 (setting [7]) it was 1.84 nM.

As for LPIRYQTPAI, the Kd was 51.9 nM with HLA-B*35:01 (setting [6]), 69.1 nM with HLA-B*51:01 (setting [6]) and 13.5 nM with HLA-B*53:01 (setting [6]).

Consider LPLPWLPGAD, for which the Kd in the experiment with HLA-B*35:01 (setting [6]) was 2490 nM; with HLA-B*51:01 (setting [6]) it was ≥ 32600 nM.

Regarding LPLPWTSGAS, the Kd with HLA-B*35:01 (setting [10]) came out at 938 nM; with HLA-B*51:01 (setting [10]), 10600 nM.

LSARHASGK: the Kd in the experiment with HLA-A*03:01 is 127 nM.

In the case of LTGNNTITT, the figures for the Kd with HLA-A*02:02 (setting [8]), with HLA-A*02:03 (setting [8]) and in the experiment with HLA-A*02:06 (setting [8]) were 5750 nM, 5620 nM and 8680 nM, respectively.

For the sequence LTSVDIETAI, the Kd came to 509 nM with HLA-A*02:02 (setting [8]), 2150 nM with HLA-A*02:03 (setting [8]) and 3130 nM with HLA-A*02:06 (setting [8]).

LTTLATIST: in the experiment with HLA-A*02:01 [1] (setting [3]), the IC50 was 7630 nM.

As to MAFILGIII, the Kd was 9530 nM with HLA-A*02:02 (setting [8]), 9760 nM with HLA-A*02:03 (setting [8]) and ≥ 32500 nM with HLA-A*02:06 (setting [8]).

For the origin of these results see the Immune Epitope Database (IEDB).
